According to publication PMC3898472, “Molecular Basis for DNA Double-Strand Break Annealing and Primer Extension by an NHEJ DNA Polymerase”:

B1: annealed break T/D (dsDNA)
DNA 1: GCCGCAGATC
DNA 2: GCGGC
modifications: 5'-phosphate on D
B2: 1-nt gapped FP-T/FP-P/FP-D, 5'-P (dsDNA)
DNA 1: GGCAGCTTGGATCTTGTCGAAAAACGTCAACATTCGCCTAGGCTTCGGCAATACTGAGGTCTTGTCGAAAAACGTCAACATTGCGTGGCC
DNA 2: GGCCACGCAATGTTGACGTTTTTCGACAAGACCTCAGTAT
DNA 3: GCCGAAGCCTAGGCGAATGTTGACGTTTTTCGACAAGATCCAAGCTGCC
modifications: 5'-phosphate on FP-D

Key:
[1] = molecular target: Mt-PolDom (crystal) (UniProt P9WNV3 1-300); experiment: crystal structure 2.4 A; 10 mM MnCl2; settings: protein: recombinant
[2] = molecular target: Mt-PolDom (LigD polymerase domain) (UniProt P9WNV3 1-300); experiment: DNase I footprinting; 5 ug protein; settings: protein: recombinant; label: 32P 5'-end label

Binder	binding result [1]	binding result [2]
B1	binds	–
B2	–	binds
